These results are taken from patent publication US20240238445A1, “INHIBITORS AND USES THEREOF” (NEURACLE SCIENCE CO., LTD., priority 2021, published 2024).

Ends that are not written are not given here.

The target in assay [1] is interaction between Fc conjugated LRRC4B (amino acids 453-576) protein fragment and FAM19A5 protein (Homo sapiens, UniProt Q7Z5A7). The assay is described as follows: Competitive inhibition assay of chemical compounds, plate coated with Fc conjugated LRRC4B fragment (453-576). The class given is binding. The following applies: for effect of increasing concentration on LRRC4B-FAM19A5 interaction (in words): increasing concentrations. As to the method:
In particular, the following compounds were produced: (1) KB734, (2) KB761, (3) KB763, (4) KB1157, (5) KB1161, (6) KB1542, (7) KB1543, (8) KB2256, (9) KB2258, (10) KB2310, (11) KB2357, (12) KB2718, (13) KB2719, (14) KB3111, (15) KB3112, (16) KB3220, (17) KB3201, (18) KB3250, and (19) KB3251. Then, the ability of the above chemical compounds to inhibit the binding of LRRC4 protein family members to FAM19A5 protein was assessed using a competitive inhibition assay. Briefly, ELISA plates were coated with 100 nM of a Fc conjugated LRRC4B fragment (amino acids 453-576 of SEQ ID NO: 2; SEQ ID NO: 7). Then, recombinant FAM19A5 protein (1 ng/mL) was added to the plates in combination with one of the above chemical compounds (100 μM). Recombinant FAM19A5 protein alone (“CTRL”) or in combination with DMSO was used as control. The plates were incubated at 37° C. and then, the amount of FAM19A5 protein bound to the coated LRRC4B protein fragment was assessed using HRP-conjugated anti-FAM19A5 (1-65) antibody.
Next, to assess whether increasing the concentration of the chemical compounds could improve the inhibitory effect, increasing concentrations of KB734, KB2310, and KB2357 compounds were subjected to the same competitive inhibition assay described above.
To further assess the inhibitory effect of the KB2357 chemical compound on FAM19A5 protein and members of the LRRC4 protein family, the following derivatives of the KB2357 compound were synthesized as described earlier: (1) KB2304, (2) KB2305, (3) KB2308, (4) KB2309, (5) KB2314, (6) KB2315, (7) KB2324, (8) KB2325, (9) KB2328, (10) KB2329, (11) KB2336, (12) KB2337, (13) KB2350, (14) KB2356, (15) KB2358, (16) KB2359, (17) KB2369, (18) KB2372, and (19) KB2399. The derivative compounds were also tested in the competitive inhibition assay as described above.

The target of assay [2] is hFc-fused hLRRC4B and FAM19A5 complex formation (Homo sapiens, UniProt Q7Z5A7). The assay is described as follows: Competitive inhibition assay (IC50), plate coated with LRRC4B(453-576, TT/TT)-hFc. The class given is binding. The following applies: for IC50: Table 14, LRRC4B(453-576, TT/TT)-hFc 100 nM coat, peptide 0.03-1000 nM, read-out: IC50 (nM), Inhibition on Complex Formulation between human LRRC4B protein and recombinant FAM19A5 protein (1 ng/mL). As for the experimental part:
The in silico analysis provided in Example 9 highlighted that certain T12 and L13 double mutants might be important in improving the binding affinity of the polypeptides of the present disclosure to the FAM19A5 protein. Therefore, the ability of both the wild-type FB-21 peptide (which is the same as the FB-20 peptide described herein except that the FB-21 peptide additionally contains an alanine at the C-terminus) and several FB-21 mutants were tested for their inhibitor effect on hFc-fused hLRRC4B and FAM19A5 complex formation. Briefly, plate was coated with 100 nM of LRRC4B(453-576, TT/TT)-hFc and then 1 ng/ml of rFAM19A5 was incubated at 37° C. in the presence of increasing concentrations of the different FB-21 peptide fragments (0.03, 0.1, 0.3, 1, 3, 10, 30, 100, 300 and 1000 nM). The LRRC4B-bound FAM19A5 levels were measured using HRP-conjugated 1-65 antibody.

The target in assay [3] is interaction between His-TEV LRRC4B and rFAM19A5 (Homo sapiens, UniProt Q7Z5A7). Put plainly: Competitive inhibition assay (IC50), plate coated with His-TEV LRRC4B. The class given is binding. The settings on record: Table 15; His-TEV LRRC4B 100 nM coat; peptide 0.3-10000 nM; read-out: IC50 (nM), Inhibition on Complex Formulation between LRRC4B protein and recombinant FAM19A5 protein (1 ng/ml). As for the experimental part:
To further assess the inhibitory effect of the FB-21 mutants, the ability of additional FB-21 mutants described in Example 9 were tested for their ability to inhibit the interaction between FAM19A5 protein and LRRC4B protein. Briefly, plates were coated with 100 nM of His-TEV LRRC4B and then 1 ng/mL of rFAM19A5 was incubated at 37° C. in the presence of increasing concentrations of the FB-21 peptide fragments (0.3, 1, 3, 10, 30, 100, 300, 1000, 3000 and 10000 nM). The LRRC4B-bound FAM19A5 levels were measured using HRP-conjugated 1-65 SS01 antibody. As shown in FIG. 22B (see Table 15 for IC50), most (if not all) of the FB-21 mutants had improved ability in inhibiting the interaction between LRRC4B and recombinant FAM19A5 protein.
Next, to assess whether other properties of the polypeptides described herein can be improved (e.g., solubility, prevention of degradation from protease and peptidase, and in vivo administration), the following additional FB-21 peptide mutants were constructed and tested for their ability to inhibit the interaction between FAM19A5 protein and LRRC4B: (1) d-form FB-21 peptide (“dFB-21”), (2) d-form FB-21 peptide with juxta-membrane (JM) sequence (“dFB-JM-31”), (3) d-form FB-21 peptide with BBB penetrating sequence at each end of the sequence (“dFB-BBB-39”), and (4) d-form FB-21 mutant peptide with DY replacement and additional JM sequence (“dFB-DY-JM31”). The sequence for d-form FB-21 peptide is set forth in SEQ ID NO: 153 (nYTYFTTVTVETLETQPGEEa; wherein the lowercase amino acids represent D-form of the amino acid, and the uppercase amino acids represent L-form of the amino acid). The sequence for dFB-BBB-39 is set forth in SEQ ID NO: 154 (n[…]l; wherein the lowercase amino acids represent D-form of the amino acid, and the uppercase amino acids represent L-form of the amino acid). The sequence for dFB-JM-31 is set forth in SEQ ID NO: 155 (n[…]a; wherein the lowercase amino acids represent D-form of the amino acid, and the uppercase amino acids represent L-form of the amino acid). The sequence for dFB-DY-JM31 is set forth in SEQ ID NO: 156 (n[…]a; wherein the lowercase amino acids represent D-form of the amino acid, and the uppercase amino acids represent L-form of the amino acid). The overall experimental methods were the same as those described immediately above.

For assay [4], the target named is T1, FAM19A5 protein (Homo sapiens, UniProt Q7Z5A7). The assay is described as follows: competitive inhibition ELISA; competitor: coated LRRC4B(36-576)-hFc. In general terms: In an ELISA, binding on a coated surface is turned into a signal by an enzyme label.
Assay [5] deals with T1, FAM19A5 protein. The assay is described as follows: competitive inhibition ELISA; competitor: coated LRRC4B(453-576)-hFc.
In assay [6] the target is T1, FAM19A5 protein. The assay is described as follows: competitive inhibition ELISA, 20 nM peptide, rFAM19A5 5 ng/mL; competitor: coated LRRC4B(36-576)-hFc.
Assay [7] has as its target T1, FAM19A5 protein. The assay is described as above. This is another data set of the same source.
Assay [8] deals with T1, FAM19A5 protein. Put plainly: competitive inhibition ELISA, 20 nM peptide, rFAM19A5 1 ng/mL; competitor: coated LRRC4B(453-576)-hFc.
Assay [9] addresses T1, FAM19A5 protein. The assay is described as above. The source holds these as a separate data set.

Chain of interaction between Fc conjugated LRRC4B (amino acids 453-576) protein fragment and FAM19A5 protein (Q7Z5A7 44-132): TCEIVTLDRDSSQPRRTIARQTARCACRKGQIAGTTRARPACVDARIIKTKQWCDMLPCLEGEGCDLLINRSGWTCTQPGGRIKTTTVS

On to `CCCCCC(O)/C=C\c1ccc(O)c(OC)c1` (stereo not shown) [KB2356, (Z)-4-(3-Hydroxyoct-1-en-1-yl)-2-methoxyphenol], for which the “effect of increasing concentration on LRRC4B-FAM19A5 interaction (in words)” value (“effect of increasing concentration” for short) in assay [1] was “able to reduce the interaction in a dose-dependent manner”.

Turning to `CCCCC[C@@H](O)C#Cc1ccc(O)c(OC)c1` [KB2357, (R)-4-(3-Hydroxyoct-1-yn-1-yl)-2-methoxyphenol], the “reduction of interaction between FAM19A5 and the coated LRRC4B protein fragment compared to the controls” value in assay [1] (100 μM compound, FAM19A5 1 ng/mL) was “about 10%”. In addition, in [1], the “effect of increasing concentration” value is recorded as “greater reduction in the interaction”.

As to “GYTYFTTVTVETLETQPGEEA [FB-21 (wild-type)]”, the IC50 in assay [2] amounted to 11.9 nM; in assay [3], 138 nM.

GYTYFTTVTVEWYETQPGEEA [FB-21 (W12Y13)]: the IC50 in assay [2] was 4.1 nM; in assay [3], 46.7 nM. Moreover, the “increase in ability to dissociate the LRRC4B-FAM19A5 complex compared with wild-type FB-21” value in assay [2] (from IC50 of Table 14) was 2.9 folds.

On to `CCCCC[C@H](O)C#Cc1ccc(O)c(OC)c1` [KB2358, (S)-4-(3-Hydroxyoct-1-yn-1-yl)-2-methoxyphenol], for which the “effect of increasing concentration” value in [1] is reported as “able to reduce the interaction in a dose-dependent manner”.

With GYTYFTTVTVETLETQPGEE [FB-20], the Inhibition rate (%) in assay [4] came to 77%; in assay [5] it was 63.2%; in assay [6] it was 77%; in assay [7], 84.3%; in assay [8], 63.2%; in assay [9], 62%.

On to NYSFFTTVTVETTEISPEDTTRK [FBC4-23], for which the Inhibition rate (%) in assay [6] is 64.1%; in [8], 40.4%.

Consider NFSYFSTVTVETMEPSQDERTTR [FBC4C-23], for which the results for the Inhibition rate (%) in assay [6] and in [8] were 65.7% and 40.4%, respectively.
